Tested on: STAT6
Assay: Screening of full-length cDNA clones for promotion of STAT6 activation (luciferase reporter N4×8-luc)
Format: cell-based
Conditions: NIH3T3 cells cotransfected with N4×8-luc reporter and cDNA plasmid; 48 h culture, then mouse IL-4 0.5 ng/ml for 6 h
Summary of the method: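 NIH3T3 cells cotransfected with STAT6-responsive N4×8-luc reporter (100 ng) and full-length cDNA, cultured 48 h, then given mouse IL-4 at 0.5 ng/ml final for 6 h. Luciferase activity compared with reporter plus null-vector control.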

B1: 89 (nucleic acid, listed as Homo sapiens)
chain: GTAGTGCGGCGCTGTTTAAAGATGGCGGCGGAGGAACCTCAGCAGCAGAAGCAGGAGCCGCTGGGCAGCGACTCCGAAGGTGTTAACTGTCTGGCCTATGATGAAGCCATCATGGCTCAGCAGGACCGAATTCAGCAAGAGATTGCTGTGCAGAACCCTCTGGTGTCAGAGCGGCTGGAGCTCTCGGTCCTATACAAGGAGTATGCTGAAGATGACAACATCTATCAACAGAAGATCAAGGACCTCCACAAAAAGTACTCGTACATCCGCAAGACCAGGCCTGACGGCAACTGTTTCTATCGGGCTTTCGGATTCTCCCACTTGGAGGCACTGCTGGATGACAGCAAGGAGTTGCAGCGGTTCAAGGCTGTGTCTGCCAAGAGCAAGGAAGACCTGGTGTCCCAGGGCTTCACTGAATTCACAATTGAGGATTTCCACAACACGTTCATGGACCTGATTGAGCAGGTGGAGAAGCAGACCTCTGTCGCCGACCTGCTGGCCTCCTTCAATGACCAGAGCACCTCCGACTACCTTGTGGTCTACCTGCGGCTGCTCACCTCGGGCTACCTGCAGCGCGAGAGCAAGTTCTTCGAGCACTTCATCGAGGGTGGACGGACTGTCAAGGAGTTCTGCCAGCAGGAGGTGGAGCCCATGTGCAAGGAGAGCGACCACATCCACATCATTGCGCTGGCCCAGGCCCTCAGCGTATCCATCCAGGTGGAGTACATGGACCGCGGCGAGGGCGGCACCACCAATCCGCACATCTTCCCTGAGGGCTCCGAGCCCAAGGTCTACCTTCTCTACCGGCCTGGACACTACGATATCCTCTACAAATAGGGCTGGCTCCAGCCCGCTGCTGCCCTGCTGCCCCCCTCTGCCAGGCGCTAGACATGTACAGAGGTTTTTCTGTGGTTGTAAATGGTCCTATTTCACCCCCTTCTTCCTGTCACATGACCCCCCCCCATGTTTTATTAAAGGGGGTGCTGGTGGTG
modifications: CDS (22)..(834)
- Activity = (luciferase activity of the gene of each SEQ ID NO:)/(luciferase activity of pME18S-FL3): 10.2

B2: 295 (nucleic acid, listed as Homo sapiens)
chain: ACTCGTGCGTGAGGCGAGAGGAGCCGGAGACGAGACCAGAGGCCGAACTCGGGTTCTGACAAGATGGCCGGGCTGCCCCGCAGGATCATCAAGGAAACCCAGCGTTTGCTGGCAGAACCAGTTCCTGGCATCAAAGCCGAACCAGATGAGAGCAACGCCCGTTATTTTCATGTGGTCATTGCTGGCCCTCAGGATTCCCCCTTTGAGGGAGGGACTTTTAAACTTGAACTATTCCTTCCAGAAGAATACCCAATGGCAGCCCCTAAAGTACGTTTCATGACCAAAATTTATCATCCTAATGTAGACAAGTTGGGAAGAATATGTTTAGATATTTTGAAAGATAAGTGGTCCCCAGCACTGCAGATCCGCACAGTTCTGCTATCGATCCAGGCCTTGTTAAGTGCTCCCAATCCAGATGATCCATTAGCAAATGATGTAGCGGAGCAGTGGAAGACCAACGAAGCCCAAGCCATAGAAACAGCTAGAGCATGGACTAGGCTATATGCCATGAATAATATTTAAATTGATACGATCATCAAGTGTGCATCACTTCTCCTGTTCTGCCAAGACTTCCTCCTCTTTGTTTGCATTTAATGGACACAGTCTTAGAAACATTACAGAATAAAAAAGCCCAGACATCTTCAGTCCTTTGGTGATTAAATGCACATTAGCAAATCTATGTCTTGTCCTGATTCACTGTCATAAAGCATGAGCAGAGGCTAGAAGTATCATCTGGATTGTTGTGAAACGTTTAAAAGCAGTGGCCCCTCCCTGCTTTTATTCATTTCCCCCATCCTGGTTTAAGTATAAAGCACTGTGAATGAAGGTAGTTGTCAGGTTAGCTGCAGGGGTGTGGGTGTTTTTATTTTATTTTATTTTATTTTATTTTTGAGGGGGGAGGTAGTTTAATTTTATGGGCTCCTTTCCCCCTTTTTTGGTGATCTAATTGCATTGGTTAAAAGCAGCTAACCAGGTCTTTAGAATATGCTCTAGCCAAGTCTAACTTTATTTAGACGCTGTAGATGGACAAGCTTGATTGTTGGAACCAAAATGGGAACATTAAACAAACATCACAGCCCTCACTAATAACATTGCTGTCAAGTGTAGATTCCCCCCTTCAAAAAAAGCTTGTGACCATTTTGTATGGCTTGTCTGGAAACTTCTGTAAATCTTATGTTTTAGTAAAATATTTTTTGTTATTCT
modifications: CDS (64)..(519)
- Activity = (luciferase activity of the gene of each SEQ ID NO:)/(luciferase activity of pME18S-FL3): 31.0

B3: 327 (nucleic acid, listed as Homo sapiens)
chain: TGTCGACGCCGCTGCCACCGCCTGCCTGAGAGAAGTCGTCGCGGCCGACCCCGTCGCCTCCGCCGGCTACCATGTCCGCCCAGGCGCAGATGCGGGCCCTGCTGGACCAGCTCATGGGCACGGCTCGGGACGGAGACGAAACCAGACAAAGGGTCAAGTTTACAGATGACCGTGTCTGCAAGAGTCACCTTCTGGACTGCTGCCCCCATGACATCCTGGCTGGGACGCGCATGGATTTAGGAGAATGTACCAAAATCCACGACTTGGCCCTCCGAGCAGATTATGAGATTGCAAGTAAAGAAAGAGACCTGTTTTTTGAATTAGATGCAATGGATCACTTGGAGTCCTTTATTGCTGAATGTGATCGGAGAACTGAGCTCGCCAAGAAGCGGCTGGCAGAAACACAGGAGGAAATCAGTGCGGAAGTTTCTGCAAAGGCAGAAAAAGTACATGAGTTAAATGAAGAAATAGGAAAACTCCTTGCTAAAGCCGAACAGCTAGGGGCTGAAGGTAATGTGGATGAATCCCAGAAGATTCTTATGGAAGTGGAAAAAGTTCGTGCGAAGAAAAAAGAAGCTGAGGAAGAATACAGAAATTCCATGCCTGCATCCAGTTTTCAGCAGCAAAAGCTGCGTGTCTGCGAGGTCTGTTCAGCCTACCTTGGTCTCCATGACAATGACCGTCGCCTGGCAGACCACTTCGGTGGCAAGTTACACTTGGGGTTCATTCAGATCCGAGAGAAGCTTGATCAGTTGAGGAAAACTGTCGCTGAAAAGCAGGAGAAGAGAAATCAGGATCGCTTGAGGAGGAGAGAGGAGAGGGAACGGGAGGAGCGTCTGAGCAGGAGGTCGGGATCAAGAACCAGAGATCGCAGGAGGTCACGCTCCCGGGATCGGCGTCGGAGGCGGTCAAGATCTACCTCCCGAGAGCGACGGAAATTGTCCCGGTCCCGGTCCCGAGATAGACATCGGCGCCACCGCAGCCGTTCCCGGAGCCACAGCCGGGGACATCGTCGGGCTTCCCGGGACCGAAGTGCGAAATACAAGTAACTACTCTGACTCCTTCGGTAGCTGCAACCAGGGGTTCTCCAGAGAGCGGGCATCCAGAGAGGAGTCCTGGGAGAGCGGGCGGAGCGAGCGAGGGCCCCCGGACTGGAGGCTTGAGAGCTCCAACGGGAAGATGGCTTCACGGAGGTCAGAAGAGAAGGAGGCCGGCGAGATCTGAACCCGTCTCCCGGGTGCTGTAAATAGTCTGATAAACGTTCACACAGTCTAAAATTACCCTTTATATTTGCTGAATACAACTCATCTTTTGTAGTTTAAAATTTCTATTGTTTTGGAGCTAGCTGTGAGTTTCTAGAAGTGTACAGAGTTGCTCCTGTGTTCCCGGGTCATGTTGAGTAGGAATAAATAAATCTGATGCTGCCTCCTGAGGCTGCGGGGGGTTTCTGC
modifications: CDS (72)..(1046)
- Activity = (luciferase activity of the gene of each SEQ ID NO:)/(luciferase activity of pME18S-FL3): 5.3

B4: 85 (nucleic acid, listed as Homo sapiens)
chain: ATTTCCGGTTCCGGCTGCGGGCCGGTGAAGATATGGCGGCGTCTGCGTCTGCAGCTGCAGGGGAGGAGGACTGGGTCCTTCCCTCTGAAGTTGAAGTATTGGAGTCCATCTATCTAGATGAACTACAGGTGATTAAAGGAAATGGCAGAACTTCACCATGGGAGATCTACATCACTTTGCATCCTGCCACTGCAGAGGACCAGGATTCACAGTATGTCTGCTTCACTCTGGTGCTTCAGGTCCCAGCAGAGTATCCCCATGAGGTGCCACAGATCTCTATCCGAAATCCCCGAGGACTTTCAGATGAACAGATCCACACGATCTTACAGGTGCTGGGCCACGTGGCCAAGGCTGGGCTGGGCACTGCCATGCTGTATGAACTCATTGAGAAAGGGAAGGAAATTCTCACAGATAACAACATCCCTCATGGCCAGTGTGTCATCTGCCTCTATGGTTTCCAGGAGAAGGAGGCCTTTACCAAAACACCCTGTTACCACTACTTCCACTGCCACTGCCTTGCTCGGTACATCCAGCACATGGAGCAAGAGCTGAAGGCACAAGGACAGGAGCAGGAACAGGAACGGCAGCATGCTACAACCAAACAGAAGGCAGTCGGTGTGCAGTGTCCAGTGTGCAGAGAGCCCCTCGTGTATGATCTTGCCTCACTGAAAGCAGCCCCTGAACCCCAACAGCCCATGGAGCTGTACCAGCCCAGTGCAGAGAGCTTGCGCCAGCAAGAAGAACGCAAGCGGCTCTACCAGAGGCAGCAGGAGCGGGGGGGAATCATTGACCTTGAGGCTGAGCGAAACCGATACTTCATCAGCCTTCAGCAGCCTCCTGCCCCTGCGGAACCTGAGTCAGCTGTAGATGTCTCCAAAGGATCCCAACCACCCAGCACCCTTGCAGCAGAACTATCCACCTCACCAGCCGTCCAATCCACTTTGCCACCTCCTCTGCCTGTGGCGACCCAGCACATATGTGAGAAGATTCCAGGGACCAGGTCAAATCAGCAAAGGTTGGGCGAAACCCAGAAAGCTATGCTAGATCCCCCCAAGCCCAGTCGAGGTCCCTGGCGACAGCCCGAACGGAGGCACCCAAAGGGAGGGGAGTGCCACGCCCCTAAAGGTACCCGTGACACCCAGGAACTGCCACCTCCTGAGGGGCCCCTCAAGGAGCCCATGGACCTAAAGCCAGAACCCCATAGCCAAGGAGTTGAAGGTCCTCCACAAGAGAAGGGGCCTGGCAGCTGGCAGGGGCCCCCACCCCGCAGGACTCGGGACTGTGTTCGCTGGGAGCGCTCTAAGGGCCGGACACCCGGTTCTTCCTACCCTCGCCTGCCTCGGGGCCAGGGAGCATACCGGCCTGGTACTCGGAGGGAGTCCCTGGGCCTGGAATCTAAGGATGGTTCCTAGCAGGACTTGGTGGGGGGAACAGGGAATTGGGGATGGGAGGGAGGCAATAAAGATATTTGGCCTTCTTTGGCTTTCTTTGCTT
modifications: CDS (33)..(1409)
- Activity = (luciferase activity of the gene of each SEQ ID NO:)/(luciferase activity of pME18S-FL3): 11.5

B5: 293 (nucleic acid, listed as Homo sapiens)
chain: GAGCATACACCGAGAGAGTGAGGAGCCAGACGACAAGCACACACTATGGCGCTGAAACGGATTAATAAGGAACTTAGTGATTTGGCCCGTGACCCTCCAGCACAATGTTCTGCAGGTCCAGTTGGGGATGATATGTTTCATTGGCAAGCCACAATTATGGGACCTAATGACAGCCCATATCAAGGCGGTGTATTCTTTTTGACAATTCATTTTCCTACAGACTACCCCTTCAAACCACCTAAGGTTGCATTTACAACAAGAATTTATCATCCAAATATTAACAGTAATGGCAGCATTTGTCTCGATATTCTAAGATCACAGTGGTCGCCTGCTTTAACAATTTCTAAAGTTCTTTTATCCATTTGTTCACTGCTATGTGATCCAAACCCAGATGACCCCCTAGTGCCAGAGATTGCACGGATCTATAAAACAGACAGAGATAAGTACAACAGAATATCTCGGGAATGGACTCAGAAGTATGCCATGTGATGCTACCTTAAAGTCAGAATAACCTGCATTATAGCTGGAATAAACTTTAAATTACTGTTCCTTTTTTGATTTTCTTATCCGGCTGCTCCCCTGATCAGACCTCATCTTTTTTAATTTTATTTTTTGTTTACCTCCCTCCATTCATTCACATGCTCATCTGAGAAGACTTAAGTTCTTCCAGCTTTGACAATAACTGCTTTTAGAAACTGTAAAGTAGTTACAAGAGAACAGTTGG
modifications: CDS (46)..(486)
- Activity = (luciferase activity of the gene of each SEQ ID NO:)/(luciferase activity of pME18S-FL3): 25.8
